Molecular target: protein-base BG505 trimer (BG505 DS-SOSIP-2G-3Mut-RnS7Mut) (HIV-1 (BG505)) (UniProt Q2N0S6)
Test: SPR; 2G12 antibody immobilised on a CM5 chip (about 2,000 RU), HIV trimer loaded onto it; sCD4 injected at five concentrations (30-500 nM), single cycle, 50 uL/min; 10 mM HEPES pH 7.4, 150 mM NaCl, 3 mM EDTA, 0.05% P-20; Biacore T-200

soluble construct of CD4 containing the first two domains (sCD4) (domain or fragment)
Kd: 1200 nM

Source: PMC10404741
